According to PMC9741242, “Insights into the Structure of the Highly Glycosylated Ffase from Rhodotorula dairenensis Enhance Its Biotechnological Potential” (International Journal of Molecular Sciences, 2022):

Substrate: OC[C@H]1O[C@@](CO)(O[C@H]2O[C@H](CO)[C@@H](O)[C@H](O)[C@H]2O)[C@@H](O)[C@@H]1O
Experiment: DNS reducing sugar assay, Michaelis-Menten fit
Assay type: biochemical, Rhodotorula dairenensis
Conditions: 50 mM sodium phosphate pH 5.5, 60 °C, sucrose 1-200 mM
Text: DNS reducing sugar assay, Michaelis-Menten fit on RdINVΔ21–139

B1: RdINVΔ21–139 (Rhodotorula dairenensis) (protein)
chain: SSSCAPTSLPASATELPTTVPTGTVITGDYTGSYRPQVHYSPPKGFMNDPNGCHRDRNGTYHLYYQYNPLEYVAGNQHWGHATSDDLYHWTNQPIAIFPPNSTSQVFSGSAVLDPNNTSGFFPNTTDGVVAVYTLNTPTLQVQEVAYSTDGGYNFTPYENNPVLSVGSNQFRDPKVFWYEDHWVMAVAAANDFTIEIYTSPNLTSWTFASNFTHHGLLGLAYECPNLVQVPFQDDPSKSAWLMYISINPGAPLGGSVGQYFPGDFNGTHFVAYDSAARIADFAKDNYASQWFADTENGESISIAWASNWQYTQQVPTSAQAFRSAMSLPRRNYLTNITRLGWDLVSLPYDLSPVVGPSLLSSSEANSTADVDFTNVTSNAVWFSLNVTLPDAAIQNASLISADASINITFLPSTKCSSSSGSGSDSPAATLTYFYAGLTNGALALTRPAASSSWGAENPFFTDKFSYTLVDPLTSLVGVFDRSMLEVFVNEGAHSATMLVFPDSPVGSMKVATGGLPEGTQVNLQVNGLESTWQSS
notes: truncated: residues 21-139 deleted after the signal peptide (residues 140-675 remain); secreted by Komagataella phaffii, glycosylated, ~100 kDa; homodimer; deglycosylated for crystals
**Q.** How did the Km turn out when B1 was run?
**A.** Its Km is 9 ± 1 mM.

**Q.** What about the kcat of the same protein?
**A.** The kcat was 16400 ± 216 s⁻¹.

**Q.** What about the kcat/Km of the same protein?
**A.** Its kcat/Km is 1.781e+06 ± 16000 M⁻¹ s⁻¹.
